Measured values: patent publication US20260207757A1

Legend:
[1] = target: type 1 IGF receptor (IGF-1R) (human) (UniProt P08069); experiment: displacement of 125I-IGF-1 from MCF7 cells, 4 C overnight
[2] = target: type 1 IGF receptor (IGF-1R) (human) (UniProt P08069); experiment: competition binding to IGF receptors against radioactive wild type IGF

Chain of type 1 IGF receptor (IGF-1R) (human) (P08069 31-1367): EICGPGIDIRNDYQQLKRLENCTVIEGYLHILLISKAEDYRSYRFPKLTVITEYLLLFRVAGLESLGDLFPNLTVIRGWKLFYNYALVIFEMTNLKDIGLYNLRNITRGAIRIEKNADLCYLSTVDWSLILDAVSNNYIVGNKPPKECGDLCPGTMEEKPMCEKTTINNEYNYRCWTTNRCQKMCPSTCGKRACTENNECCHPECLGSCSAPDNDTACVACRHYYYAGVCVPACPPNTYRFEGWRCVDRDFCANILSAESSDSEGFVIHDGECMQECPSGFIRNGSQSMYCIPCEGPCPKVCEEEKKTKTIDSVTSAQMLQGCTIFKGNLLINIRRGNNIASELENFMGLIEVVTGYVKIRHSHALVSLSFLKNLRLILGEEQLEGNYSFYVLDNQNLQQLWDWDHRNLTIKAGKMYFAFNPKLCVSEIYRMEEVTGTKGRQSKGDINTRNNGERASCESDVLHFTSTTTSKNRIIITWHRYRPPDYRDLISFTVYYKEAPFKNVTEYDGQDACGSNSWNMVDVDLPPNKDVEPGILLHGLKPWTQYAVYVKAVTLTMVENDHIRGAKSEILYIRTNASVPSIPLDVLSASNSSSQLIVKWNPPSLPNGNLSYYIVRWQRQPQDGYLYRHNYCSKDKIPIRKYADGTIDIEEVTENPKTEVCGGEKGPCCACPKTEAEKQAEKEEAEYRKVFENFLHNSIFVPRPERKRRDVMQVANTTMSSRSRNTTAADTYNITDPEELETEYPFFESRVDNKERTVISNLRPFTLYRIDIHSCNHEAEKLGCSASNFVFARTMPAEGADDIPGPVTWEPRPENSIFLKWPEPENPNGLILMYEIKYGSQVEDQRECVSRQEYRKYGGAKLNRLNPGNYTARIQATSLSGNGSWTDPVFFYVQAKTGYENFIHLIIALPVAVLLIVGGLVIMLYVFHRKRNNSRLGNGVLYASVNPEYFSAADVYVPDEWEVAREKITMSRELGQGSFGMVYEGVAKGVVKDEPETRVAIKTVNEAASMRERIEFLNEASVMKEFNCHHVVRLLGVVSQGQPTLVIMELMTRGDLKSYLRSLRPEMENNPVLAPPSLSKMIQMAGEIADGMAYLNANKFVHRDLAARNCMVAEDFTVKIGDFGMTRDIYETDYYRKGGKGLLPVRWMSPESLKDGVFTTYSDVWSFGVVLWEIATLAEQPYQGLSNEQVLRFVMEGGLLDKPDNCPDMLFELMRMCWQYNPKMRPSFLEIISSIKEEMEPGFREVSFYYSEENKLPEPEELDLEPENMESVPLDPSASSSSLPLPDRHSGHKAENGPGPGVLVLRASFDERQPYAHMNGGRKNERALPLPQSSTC

Q: With long-R3-IGF (ligand) as the substance, how does the Kd [1] read?
A: 3 nM

Q: And the Kd [2]?
A: 1 nM
